Reference: the DeepSol protein solubility set

Test: soluble on expression in E. coli; label from the status in PepcDB or PDB records

| Sequence | soluble on expression in E. coli |
| --- | --- |
| MSLSDFDYIQKNTPPEFPEKFKTALLPENIKKNRYSDVLANDDTRVKLNNNGYINANYIFQGRMIASQAPTIETIPDFLQMIIEQQVPIVIMLTKCKEKTRIKATPYWGYKSEGGKKVFGNYTVNTIDTLYDDVEEDKFMEDIQIRYLQIIYEDGVYSFIQIHYMGWPDFGVPLNPKDALDIVYIQYIIGTTSKFSNRNLVCVHCSAGVGRTGVYCLLSRIVEMVTYEILEKSETYSKQRSTSSSSKVREVEDRIEEILLSHPVISYEDCEVILPELVLSIRNERSKMVQTKEQYDFICETVNCFYEDALDSINQYYEVIDALTEGHHHHHH | not soluble |
| GPGSMSLTTTARTPATVGKLSPSSGIFSIPDNISPVTAEEVPKSRDSLLTDMSLSELSRQSVLQSEPVVLRLCHVGKSYPIAGSDERVVALKDITLAESKHSNAATTKQGASTTNCLQRSNLPPPFAPVRRGEFVMIRGPSGGGKTTLLNIIGSIDSCTEGNIELNGRIIDKDTKESVLADIRLKNIGFVFQTFNLIATMTAAENVELPMTLLGTMSTKAMRLRSRQLLTLVGLRNRINHLPSELSGGEQQRVTIARSLANNPSILLLDEPTGDLDTANTIEVMDLLMRINRRTKTTCIMVTHNPDIECYADRILYVSDGRFAKEVFNALPMCLDLENYTEYLAAKERAITGFAGVGDVEDDSEPRATAAMAECIGTKGCEIEKPNSSPVLMEPLTEGQSACSIVSPAASRSAVVQPLCPPAAATAPSVNGVTQTVLDTTHHGSASVPPASASSALLQREEREVPNGL | soluble |
| MAKRVPNMELFVFCEDLEFTQNLDLGYPFMDMTTRDKEEEAYWDMLLMQSCQHGIIANSTYSWWAAYLIENPEKIIIGPKHWLFGHENILCKEWVKIESHFEVKSQKYNALEHHHHHH | soluble |
| GPGSMHTKVLAPLAGNRIQAAHKFPQVRLQPTLHRLMTRRRQCNLPLRLFHPSSVDFAKHELEAGRIVEVRRDDNSLVALGFYEPHLERVDVFDMTANLAAMLPAISEDFFMARVHEAWERRRRILPQTQSNTYRVVNGYADSLPSLFVDVFSESFVRVVATSFGAERLVTPLLDFLSRRGAEDVLLDTPTLGDAARVSIVTPTISLPQMYVESGVSHLWLRPDMRMPSTDNLFLINPAHRRTRRMMRDVGKGKRVLTIYDRSGSAAMNAVMTAKHVTVVHREETSLEWARTNLICNHSASVFKTCETVCCDPAELRVRHQQDVVYVECHPKFLSTSNQWAELVRSLANNKVIGVGTMLIVAQEEAPLGVHDLLPRRKVFYEGDESKANQDCPMKRRPLADVLRNALEKCHLRLKFLRAFSVACDHPLLPEAESASFSLVYLVEGPALEQVFRVSASSHRTECTDEAA | not soluble |
| VAGDTTITIVGNLTADPELRFTPSGAAVANFTVASTPRIYDRQTGEWKDGEALFLRCNIWREAAENVAESLTRGARVIVSGRLKQRSFETREGEKRTVIEVEVDEIGPSLRYATAKVNKASRSGGFGSGSRPAPAQTSSASGDDPWGSAPASGSFGGGDDEPPF | soluble |
| MKKTYYLFNPGELSRKDNTIRFVPIQEGENGQEQAGQARYIPVEGISDFYVFGSLRANSSLYNFLGSNDIAVHFFDYYENYTGSFMPRDFLLSGKMLLAQASAYKNKKKRLFLARKFIEGAASNMQKNLAYYNNRGKDMQPMMELIDKYSLRLKETTTIEALMGIEGNIRQAYYDAFNLIIDPFEMGVRSKQPPQNEVNALISFGNMMCYTLCLKAIHQSQLNPTISFLHTPGERRYSLCLDISEVFKPILVDRTIFKVMNKRIIQAKHFDKQLNKCILNPSGKKLFVQAFEERLSETIRHRKLNRSVSFRHLVKLECYKIAKDILGIEEYQPFKMYW | not soluble |
| MNLLVIGGHERMEKDYMVMAKKKGYKTKVYTTMSSKLNNSIGRPDAVVILTSTVSHKMSRTVESQAKKQDILIVRHKNSLEHHHHHH | soluble |
| MSLKSTDIKIVEAKFSTEEVPFRTPLKFGGRVMDSSVLLNVEVIVETRNGKQGIGIGSMPAGNIWAWPSAVVSPEDSLKAMIEFLKEAVEIANICPEVAHPIDLMYHISAEYHFMAKKLSKRLGLAEEIPELAQLVASSPLDAAIHDGFGRANHINSYNGLSAEYMSHDLTEYLDDQFKGEYLDQYTLRDPKPTLPLYHLVGALDPITEADISERVDDGLPETLGEWIKADGLTHLKIKLSGDNMDWDISRVIAVENEAVKAQGERGQDKWVYSLDFNEKCENVDYVLDFLNKIREQTPAAFDRVQYIEQPTNRDLKANPENKMHEAAKIKPVVIDESLVDYESLLLSRELGYSGVALKACKGQTESLFLGAAAQKFDMFLCVQDLTCCGYSFLHSASLAARIPSIAAIEGNGRQYCPGPNKKWKRSYPGMFNITDGTVKTSELNGDGLGFEGHHHHHH | soluble |
